In patent US8859723 (dated 2014):
Like-named read-outs stand apart in the source and are kept apart here.

T1: hDMX (In-house, 40 kD) (human, UniProt O15151 1-120)
T1 chain: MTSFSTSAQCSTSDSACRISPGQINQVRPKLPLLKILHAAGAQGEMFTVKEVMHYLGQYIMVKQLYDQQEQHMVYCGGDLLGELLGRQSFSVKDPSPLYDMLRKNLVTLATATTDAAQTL


Experiments:
hDMX (In-house, 40 kD) [1] = biological target: T1, hDMX (In-house, 40 kD); assay: FP competition
hDM2 (In-house, 41 kD) [2] = biological target: T2, hDM2 (In-house, 41 kD) (human, UniProt Q00987 1-125); assay: FP competition
SP-44 = assay: Affinity selection MS
SP-5 = assay: Affinity selection MS
hDMX (In-house, 40 kD) [3] = biological target: T1, hDMX (In-house, 40 kD); assay: FP competition
hDM2 (In-house, 41 kD) [4] = biological target: T2, hDM2 (In-house, 41 kD); assay: FP competition; remark: listed apart in the source

Row | Binder | IC50 (hDMX (In-house, 40 kD) [1]) | IC50 (hDM2 (In-house, 41 kD) [2]) | other results
1 | LTFAAYWVQLAS (not fully specified) [SP-681] | 395 nM | 118 nM | 
2 | LTFAAYWAALAS (not fully specified) [SP-673] |  | 137 nM | 
3 | LTFAFYWAQLAA (not fully specified) [SP-604] | 310 nM |  | 
4 | LTFAVYWAQLAA (not fully specified) [SP-623] |  | 68.3 nM | 
5 | GST-hDMX (other) MTSFSTSAQCSTSDSACRISPGQINQVRPKLPLLKILHAAGAQGEMFTVKEVMHYLGQYIMVKQLYDQQEQHMVYCGGDLLGELLGRQSFSVKDPSPLYDMLRKNLVTLATATTDAAQTL |  |  | Kd (SP-44): 180 nM; Kd (SP-5): 90 nM
6 | GST-hDM2 (other) MCNTNMSVPTDGAVTTSQIPASEQETLVRPKPLLLKLLKSVGAQKDTYTMKEVLFYLGQYIMTKRLYDEKQQHIVYCSNDLLGDLFGVPSFSVKEHRKIYTMIYRNLVVVNQQESSDSGTSVSEN |  |  | Kd (SP-44): 25 nM; Kd (SP-5): 25 nM
7 | ETFAAYWAQLAS (not fully specified) [SP-508] |  |  | IC50 (hDMX (In-house, 40 kD) [3]): 88.8 nM; IC50 (hDM2 (In-house, 41 kD) [4]): 22.8 nM
8 | LTFAAYWAQFAS (not fully specified) [SP-586] | 673 nM |  | 
9 | LTFAEYWAQLAA (not fully specified) [SP-671] |  | 63.6 nM | 

More lines, main results first:

Row | IC50 (hDMX (In-house, 40 kD) [1]) | IC50 (hDM2 (In-house, 41 kD) [2]) | Binder | other results
10 | 379 nM |  | WTFALYWSQLAS (not fully specified) [SP-696] | 
11 |  | 103 nM | ETFAAYWAQLAA (not fully specified) [SP-709] | 
12 |  | 104 nM | ITFAFYWAQLAS (not fully specified) [SP-684] | 
13 | 157 nM | 82.2 nM | LTFAAYWSQLAA (not fully specified) [SP-698] | 
